Measurements: patent publication US20230220042A1 (SHANGHAI JIAO TONG UNIVERSITY SCHOOL OF MEDICINE, published 2023)
Where a chain is given by its changes, count along the chain named. Names and notes keep the numbering of the source. Each block holds one binder with its values, some of them ahead of it.

Target: T1, Biotin-FcγRIIB (human, UniProt P31994 43-217, limits assumed, biotin-labelled)
T1 construct: Bought, biotin-labelled; used at 1 µg/ml for staining and sorting; also called human FcγRIIB; CD32b
T1 sequence (looked up): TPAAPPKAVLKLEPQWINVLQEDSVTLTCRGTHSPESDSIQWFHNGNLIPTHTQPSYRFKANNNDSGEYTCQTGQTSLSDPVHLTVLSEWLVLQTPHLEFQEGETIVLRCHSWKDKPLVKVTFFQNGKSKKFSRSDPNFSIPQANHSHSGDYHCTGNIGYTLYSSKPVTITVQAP
Experiment: FACS sorting of displayed Fc library on biotin-FcγRIIB, NGS

B1: human IgG2 anti-mouse CD40 surface displayed antibody, Fc mutant A330R (antibody, name in EU numbering)
light chain (with the P2A rest): DTVLTQSPALAVSPGERVTISCRASDSVSTLMHWYQQKPGQQPKLLIYLASHLESGVPARFSGSGSGTDFTLTIDPVEADDTATYYCQQSWNDPWTFGGGTKLELKRTVAAPSVFIFPPSDEQLKSGTASVVCLLNNFYPREAKVQWKVDNALQSGNSQESVTEQDSKDSTYSLSSTLTLSKADYEKHKVYACEVTHQGLSSPVTKSFNRGECGSGATNFSLLKQAGDVEENPG
heavy chain: EVQLVESDGGLVQPGRSLKLPCAASGFTFSDYYMAWVRQAPTKGLEWVASISYDGSSTYYRDSVKGRFTISRDNAKSTLYLQMDSLRSEDTATYYCGRHSSYFDYWGQGVMVTVSSASTKGPSVFPLAPCSRSTSESTAALGCLVKDYFPEPVTVSWNSGALTSGVHTFPAVLQSSGLYSLSSVVTVPSSNFGTQTYTCNVDHKPSNTKVDKTVERKCCVECPPCPAPPVAGPSVFLFPPKPKDTLMISRTPEVTCVVVDVSHEDPEVQFNWYVDGVEVHNAKTKPREEQFNSTFRVVSVLTVVHQDWLNGKEYKCKVSNKGLPRPIEKTISKTKGQPREPQVYTLPPSREEMTKNQVSLTCLVKGFYPSDIAVEWESNGQPENNYKTTPPMLDSDGSFFLYSKLTVDKSRWQQGNVFSCSVMHEALHNHYTQKSLSLSPGKLEPPPSTVSNMATVAVLVVLGAAIVTGAVVAFVMKMRRRNTGGKGGDYALAPGSQTSDLSLPDCKVMVHDPHSLA
notes: as m1; positions are Eu numbers; copies: 2 + 2
Increased factor b Site 2 (point mutation/wild-type): 0

B2: human IgG2 anti-mouse CD40 surface displayed antibody, Fc mutant G327A (antibody, name in EU numbering)
light chain (with the P2A rest): B1 light chain (with the P2A rest)
heavy chain: B1 heavy chain with G322A, R325A
notes: as for B1
Increased factor b Site 1 (point mutation/wild-type): 3.4

B3: human IgG2 anti-mouse CD40 surface displayed antibody, Fc mutant I332A (antibody, name in EU numbering)
light chain (with the P2A rest): B1 light chain (with the P2A rest)
heavy chain: B1 heavy chain with R325A, I327A
notes: as for B1
Increased factor b Site 2 (point mutation/wild-type): 16.4

B4: human IgG2 anti-mouse CD40 surface displayed antibody, Fc mutant I332C (antibody, name in EU numbering)
light chain (with the P2A rest): B1 light chain (with the P2A rest)
heavy chain: B1 heavy chain with R325A, I327C
notes: as for B1
Increased factor b Site 2 (point mutation/wild-type): 2.7

B5: human IgG2 anti-mouse CD40 surface displayed antibody, Fc mutant L328E (antibody, name in EU numbering)
light chain (with the P2A rest): B1 light chain (with the P2A rest)
heavy chain: B1 heavy chain with L323E, R325A
notes: as for B1
Increased factor b Site 1 (point mutation/wild-type): 0.1

B6: human IgG2 anti-mouse CD40 surface displayed antibody, Fc mutant L328E/I332T (antibody, name in EU numbering)
light chain (with the P2A rest): B1 light chain (with the P2A rest)
heavy chain: B1 heavy chain with L323E, R325A, I327T
notes: as for B1
Enrichment factor (after/before sorting): 55.1
Increased factor a (enrichment factor/wild-type enrichment factor): 36.9

B7: human IgG2 anti-mouse CD40 surface displayed antibody, Fc mutant P271C (antibody, name in EU numbering)
light chain (with the P2A rest): B1 light chain (with the P2A rest)
heavy chain: B1 heavy chain with P266C, R325A
notes: as for B1
Increased factor b Site 2 (point mutation/wild-type): 29.9

B8: human IgG2 anti-mouse CD40 surface displayed antibody, Fc mutant P331C (antibody, name in EU numbering)
light chain (with the P2A rest): B1 light chain (with the P2A rest)
heavy chain: B1 heavy chain with R325A, P326C
notes: as for B1
Increased factor b Site 2 (point mutation/wild-type): 0.2

The remaining lines, values ahead:

Increased factor b Site 2 (point mutation/wild-type): 0.1
B9: human IgG2 anti-mouse CD40 surface displayed antibody, Fc mutant P331T (antibody, name in EU numbering)
light chain (with the P2A rest): B1 light chain (with the P2A rest)
heavy chain: B1 heavy chain with R325A, P326T
notes: as for B1

Increased factor b Site 1 (point mutation/wild-type): 5.5
B10: human IgG2 anti-mouse CD40 surface displayed antibody, Fc mutant S267A (antibody, name in EU numbering)
light chain (with the P2A rest): B1 light chain (with the P2A rest)
heavy chain: B1 heavy chain with S262A, R325A
notes: as for B1

Increased factor b Site 1 (point mutation/wild-type): 2.6
B11: human IgG2 anti-mouse CD40 surface displayed antibody, Fc mutant S267M (antibody, name in EU numbering)
light chain (with the P2A rest): B1 light chain (with the P2A rest)
heavy chain: B1 heavy chain with S262M, R325A
notes: as for B1

Increased factor b Site 2 (point mutation/wild-type): 7.1
B12: human IgG2 anti-mouse CD40 surface displayed antibody, Fc mutant S298E (antibody, name in EU numbering)
light chain (with the P2A rest): B1 light chain (with the P2A rest)
heavy chain: B1 heavy chain with S293E, R325A
notes: as for B1

Increased factor b Site 2 (point mutation/wild-type): 4.4
B13: human IgG2 anti-mouse CD40 surface displayed antibody, Fc mutant S298K (antibody, name in EU numbering)
light chain (with the P2A rest): B1 light chain (with the P2A rest)
heavy chain: B1 heavy chain with S293K, R325A
notes: as for B1
